# From patent publication US20230193225A1, “NEW USES OF A MUTATED LACTONASE, AND COMPOSITIONS” (FONDATION MEDITERRANEE INFECTION, priority 2019, published 2023)
# “Also recorded” adds a separate entry of the source.
# Columns and labels:
# [1] = system: Pseudomonas aeruginosa UCBPP-PA14 biofilm; test: MBEC (Minimal Biofilm Eradication Concentration) assay; format: cell-based; settings: for MBEC: P. aeruginosa UCBPP-PA14 biofilm; for factor of decrease of the concentration required to eliminate the biofilms in presence of SsoPox-W263I: P. aeruginosa biofilms, with vs without SsoPox-W263I
# Experimental: (§1) The doses of antimicrobial agents required to eliminate bacterial biofilms are determined using the “MBEC (Minimal Biofilm Eradication Concentration) Assay TM” technique developed by Innovotech (Alberta, Canada) according to the supplier's data.
# (§2) Bacterial biofilms are formed by bacterial growth in a medium and conditions adapted to the bacteria studied in the presence or absence of the lactonase SsoPox-W263I of sequence SEQ ID NO: 2.
# (§3) Bacteria are pre-cultured for 6 hours in oxygenated flasks under the conditions indicated in Table 1 and then MBEC plates are plated by diluting the pre-culture to 1:1000 in the presence or absence of SsoPox-W263I lactonase at 0.5 mg/mL. After 24 hours of growth, the bacterial biofilms formed on the spikes of the MBEC plate cover are rinsed by immersion for 5 minutes in a buffer solution (Table 1). The biofilms are then immersed in a buffer solution containing antimicrobial agents (disinfectants, bactericidal or bacteriostatic antibiotics, bacteriophages, biocides) for a period of time representative of the mechanism of action of the antimicrobial agent studied (1.5 h for antiseptics, 3 h for antibiotics, 4 h for phages). After immersion in the antimicrobial agents, the bacterial biofilms were rinsed for 5 minutes in a buffer solution and then incubated for 1 hour in a nutrient medium adapted to the bacteria studied and containing detergents to detach the biofilms (Table 1). After 1 hour of incubation, the bacteria detached from the biofilm and thus present in the wells of the MBEC plate are serially diluted and plated on suitable nutrient agar to perform bacterial counts and determine the number of bacteria that survived the combined treatment of the mutated SsoPox-W263I enzyme and the antimicrobial agent (FIG. 1). The MBEC is the minimum concentration of antimicrobial agent to eradicate the bacteria in the biofilm.
# [2] = system: Pseudomonas aeruginosa UCBPP-PA14 biofilm; test: as above; format: cell-based; settings: control sample with inactive variant SsoPox-5A8
# [3] = system: P. aeruginosa biofilms; test: Enumeration of bacteria recovered from biofilms after antiseptic or bleach treatment; format: cell-based, Pseudomonas aeruginosa; settings: for bacteria recovered from the biofilm: 10 mM H2O2 for 1.5 hours
# Experimental: as §2, §3
# [4] = system: Chromobacterium violaceum ATCC-12472 biofilm; test: MBEC (Minimal Biofilm Eradication Concentration) assay; format: cell-based; settings: C. violaceum ATCC-12472 biofilm
# Experimental: as §1, §2, §3
# [5] = system: CRISPR-Cas system genes in Chromobacterium violaceum CV12472; test: Gene expression of the CRISPR-Cas system (RT-PCR); format: cell-based; settings: C. violaceum CV12472; vs inactive SsoPox-5A8
# Experimental: (§4) FIG. 3: Expression changes of the CRISPR-Cas system. Expression of the CRISPR-Cas system genes casl, cas3, csy1, csy2, csy3 and csy4 was measured for the P. aeruginosa model strain PA14 as well as for clinical isolates from diabetic foot infections (All, B10, C5, C11, D10 and F3) and for the marine bacterium Chromobacterium violaceum CV12472. […] Error bars represent variations for 2 technical duplicates of 2 biological replicates. *p-values<0.05, *p-values<0.01, ***p-values<0.001 by Student's t-test.
# (§5) After 16 hours of culture (stationary phase), the bacteria were recovered by centrifugation.
# RNAs were extracted and purified with the PureLink® RNA mini kit (ThermoFisher) according to the supplier's recommendations and then treated with the TURBO DNA-free™ kit (ThermoFisher) to remove genomic DNA contamination. Samples were checked for quality by 1.5% agarose gel migration and the amount of nucleic acid was measured with a NanoDrop 2000 spectrophotometer (Thermo Scientific) at OD260 nm. […] RT-PCR was then performed using the LuminoCt® SYBR® Green qPCR ReadyMix™ kit and a CFX thermocycler (Bio-Rad) and specific primer pairs. […] Sample fluorescence is measured at the end of each cycle and denaturation curves were analysed with CFX Manager™ software (Bio-Rad). […]
# [6] = system: Pseudomonas aeruginosa PA14; test: Susceptibility to Intesti phage cocktail; format: cell-based; settings: enzyme 0.5 mg/mL, phage cocktail 0 to 50% (vol/vol)
# Experimental: FIG. 2: Increased susceptibility of Pseudomonas aeruginosa PA14 to Intesti phage cocktail.
# as §3
# The Intesti phage cocktail consists of a mixture of sterile filtrates of phages directed against Shigella flexneri (serovariants 1, 2, 3, 4, 6), Shigellasi, Proteus vulgaris, Proteus mirabilis, Enterococcus, Staphylococcus, Pseudomonas aeruginosa and excipients such as 8-hydroxyquinoline sulfate monohydrate at 0.0001 g/ml (estimated content) and is marketed by Intesti-bacteriophage, Microgen, Russia
# [7] = system: CRISPR-Cas system genes cas1, cas3, csy1, csy2, csy3 and csy4 in P. aeruginosa PA14 and clinical isolates; test: Gene expression of the CRISPR-Cas system (RT-PCR); format: cell-based, Pseudomonas aeruginosa; settings: vs inactive SsoPox-5A8
# Experimental: as §4, §5
# RNAs were extracted and purified with the PureLink® RNA mini kit (ThermoFisher) according to the supplier's recommendations and then treated with the TURBO DNA-free™ kit (ThermoFisher) to remove genomic DNA contamination. Samples were checked for quality by 1.5% agarose gel migration and the amount of nucleic acid was measured with a NanoDrop 2000 spectrophotometer (Thermo Scientific) at OD260 nm. Complementary DNAs (cDNAs) were synthesised using the TaqMan® Reverse Transcription Reagents kit (ThermoFisher) according to the manufacturer's recommendations. RT-PCR was then performed using the LuminoCt® SYBR® Green qPCR ReadyMix™ kit and a CFX thermocycler (Bio-Rad) and specific primer pairs. PCR amplification was performed with the following method: Denaturation for 5 minutes at 94° C., followed by 29 cycles of [1 minute at 94° C., 1 minute at 55° C., 30 seconds at 72° C.] for amplification, then a final elongation step for 7 minutes at 72° C. Sample fluorescence is measured at the end of each cycle and denaturation curves were analysed with CFX Manager™ software (Bio-Rad). Gene expression was normalised by expression of a 5S RNA housekeeping gene.
molecule,measurement,setting,value
OO [H2O2],MBEC,[1]; with SsoPox W263I 0.5 mg/mL,10 mM
same,MBEC,[1]; without SsoPox W263I,100 mM
same,factor of decrease of the concentration required to eliminate the biofilms in presence of SsoPox-W263I,[1],10
same,antiseptic required to completely eradicate the biofilm,[2],100 mM
same,bacteria recovered from the biofilm,[3]; without the lactonase,104-105 bacterial cells
"CN(C)S(=O)(=O)N(SC(F)(Cl)Cl)c1ccccc1 [Preventol A4S, Dichlofluanide]",MBEC,[4]; with SsoPox W263I 0.5 mg/mL,>10 µM
same,MBEC,[4]; without SsoPox W263I,<200 µM
NC[C@H]1O[C@H](O[C@H]2[C@H](O)[C@@H](O[C@H]3O[C@H](CO)[C@@H](O)[C@H](N)[C@H]3O)[C@H](N)C[C@@H]2N)[C@H](N)C[C@@H]1O [Tobramycin],MBEC,[1]; with SsoPox W263I 0.5 mg/mL,1 µg/mL
same,MBEC,[1]; without SsoPox W263I,10 µg/mL
same,factor of decrease of the concentration required to eliminate the biofilms in presence of SsoPox-W263I,[1],10
Gentamicin,MBEC,[1]; with SsoPox W263I 0.5 mg/mL,2 µg/mL
same,MBEC,[1]; without SsoPox W263I,20 µg/mL
same,factor of decrease of the concentration required to eliminate the biofilms in presence of SsoPox-W263I,[1],10
"SsoPox-W263I: mutated hyperthermophilic lactonase of Sulfolobus solfataricus (SsoPox), tryptophan at position 263 substituted by isoleucine, SEQ ID NO: 2 (protein, listed as Sulfolobus solfataricus) MRIPLVGKDSIESKDIGFTLIHEHLRVFSEAVRQQWPHLYNEDEEFRNAVNEVKRAMQFGVKTIVDPTVMGLGRDIRFMEKVVKATGINLVAGTGIYIYIDLPFYFLNRSIDEIADLFIHDIKEGIQGTLNKAGFVKIAADEPGITKDVEKVIRAAAIANKETKVPIITHSNAHNNTGLEQQRILTEEGVDPGKILIGHLGDTDNIDYIKKIADKGSFIGLDRYGLDLFLPVDKRNETTLRLIKDGYSDKIMISHDYCCTIDIGTAKPEYKPKLAPRWSITLIFEDTIPFLKRNGVNEEVIATIFKENPKKFFS",expression of the cas3 and csy2-4 genes,[5],significantly reduced
same,sensitivity of bacteria to Intesti phage cocktail (number of bacteria counted),[6],more sensitive
same,sensitivity of bacteria to Intesti phage cocktail (number of bacteria counted),[6]; listed as W263I mutated lactonase,satisfactory results
same,decrease in number of bacteria recovered from biofilms,"[3]; 0.7 mM NaOCl and SsoPox-W263I, compared to NaOCl alone",2 Log
same,bacteria recovered from the biofilm,[3]; biofilm formed with SsoPox-W263I,no bacteria are recovered; also recorded: significantly reduces
same,"number of bacteria recovered from the biofilm, combination vs either agent alone",[3]; sodium hypochlorite in combination with W263I mutated lactonase,significantly reduces
same,number of bacteria recovered from biofilms,"[3]; without NaOCl treatment, with vs without W263I mutated lactonase",same number of bacteria
same,number of bacteria recovered from biofilms,"[3]; without antiseptic treatment, with vs without SsoPox-W263I",same number of bacteria
same,expression of CRISPR-Cas genes,[7]; P. aeruginosa PA14,completely abolished
same,expression of the csy1-4 genes,[7]; clinical isolate A11,significantly reduced
same,factor of decrease of CRISPR-Cas gene expression,[7]; clinical isolate B10,5.5
same,factor of decrease of CRISPR-Cas gene expression,[7]; clinical isolate C11,8
same,expression of the csy1-4 genes,[7]; clinical isolate D10,significantly reduced
same,"factor of increase of CRISPR-Cas gene expression, on average",[7]; clinical isolate F3,1.7
"SsoPox-5A8: inactive variant of SsoPox (V27G/P67Q/L72C/Y97S/Y99A/T177D/R223L/L226Q/L228M/W263H) (protein, UniProt Q97VT7 1-314, looked up, variant V27G P67Q L72C Y97S Y99A T177D R223L L226Q L228M W263H) Aryldialkylphosphatase: MRIPLVGKDSIESKDIGFTLIHEHLRGFSEAVRQQWPHLYNEDEEFRNAVNEVKRAMQFGVKTIVDQTVMGCGRDIRFMEKVVKATGINLVAGTGISIAIDLPFYFLNRSIDEIADLFIHDIKEGIQGTLNKAGFVKIAADEPGITKDVEKVIRAAAIANKETKVPIITHSNAHNNDGLEQQRILTEEGVDPGKILIGHLGDTDNIDYIKKIADKGSFIGLDLYGQDMFLPVDKRNETTLRLIKDGYSDKIMISHDYCCTIDHGTAKPEYKPKLAPRWSITLIFEDTIPFLKRNGVNEEVIATIFKENPKKFFS",sensitivity of bacteria to Intesti phage cocktail (number of bacteria counted),[6],little impacted
